US20210205408A1

Molecular target: PRX302 (modified proaerolysin in which the furin site is replaced with a PSA-specific cleavage site) (Aeromonas hydrophilia (engineered variant)) (UniProt P09167)
Test: cell-based or functional assay

For “Prostate Specific Antigen (PSA), enzymatically active (from UniProt P07288 25-261) (enzyme)”, the hemolysis (red blood cells) after pre-incubation of PRX302 with enzymatically active PSA in aqueous buffer was 45 % hemolysis.
